According to the nanobody polyreactivity screen of Harvey et al. (2022):

test: yeast display, Sf9 membrane polyspecificity reagent, FACS + sequencing; frameworks hold sequencing errors
How it was run: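 Genes from sorted yeast were amplified by colony PCR, read by MiSeq 2 × 250 sequencing and filtered on CDR length. These cells carried a synthetic nanobody library in Saccharomyces cerevisiae BJ5465 and were sorted by FACS into low and high (top ~1%) gates on anti-HA and streptavidin fluorescence. Polyreactivity is labelled according to the gate of origin.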

Row | Sequence | polyreactivity (PSR sort gate)
1 | QVQLVESGGGLVQAGGSLRLSCAASGSIFTSYTMGWYSQAPGKERELVAAIDSGGDSTYYADSVKGRFTISRDNAKNTVYLQMNSLKPEDTAVYYCAAEPQYWWQDYRYNYWGQGTQVTVSS | high polyreactivity
2 | QVQLVESGGGLVQAGGSLRLSCAASGSIFTTNAMGWYRQAPEKERELVATITWSDGSTYYADSVKGRFTISRDNAKNTVYLQMNSLKPEDTAVYYCATPYKRYFYKGGDYWGQGTQVSVSS | low polyreactivity
3 | QVQLVESGGGLVQAGGSLRLSCAASGSIFTTYTMASYRQAPGKERELVAAISSSGVRTYYADSVKGRFTISRDNAKNTVYLQMNSLKPEDTAVYYCAARVGKYAEHRYNYWGQGTQVTVSS | high polyreactivity
4 | QVQLVESGGGLVQAGGSLRLSCAASGSIFTTYTMGWYRQAPGKERELVAAITTSSGSTYYADSVKGRFTISRDNAKNTVYLQMNSLKPEDTAVYSCNATYSAAVDYWGQGTQVTVSS | low polyreactivity
5 | QVQLVESGGGLVQAGGSLRLSCAASGSIFTVNAMGWYRQAPGKERELVARISWSGGSTYYADSVKGRFTISRDNAKNTVYLQMNSLKPEDTAVYYCAKGFYEGVPSYGYDYWGQGTQVTVSS | low polyreactivity
6 | QVQLVESGGGLVQAGGSLRLSCAASGSIFTVYVIGGYRQAPGKEREFVAAITYSGGRTDYADSVKGRFTISRDNAKNTVYLQMNSLKPEDTAVYYCAKVRDVLWRFNYWGQGTQVTVSS | high polyreactivity
7 | QVQLVESGGGLVQAGGSLRLSCAASGSIFTWYAMGWYRLAPGIDRELVAAITRGGSTYADSVTGRFTISRDNAKNTVYLQMNSLKPEDTAVYYCNAVYGVYDFNYWGQGTQVTVSS | low polyreactivity
8 | QVQLVESGGGLVQAGGSLRLSCAASGSIFTWYAMGWYRQAPGKERELVAAITRGGSTYADSVKGRFTISRDNAKNTVYLQMNSLKPEDSAVYYCNAVYGVYDFTYWGPGTQVTVSS | low polyreactivity
9 | QVQLVESGGGLVQAGGSLRLSCAASGSIFTWYAMGWYRQAPGKETELVARINVSAGITYYADSVKGRFTISRDNAKNTVYLQMNSLKPEDTAVYYCAAEDFTRQFEYWGQGTQVTVSS | low polyreactivity
10 | QVQLVESGGGLVQAGGSLRLSCAASGSIFTYNAMGWYRKAPGKERELVAVISWSGGSTYYADSVKGRFTISRDNAKNTVYLQMNSLKPEDTAVYYCNSDYYRPYGNKYGYWGQGTQVTVSS | high polyreactivity
11 | QVQLVESGGGLVQAGGSLRLSCAASGSIFTYNAMGWYRQAPGKERELVASISSGGITNYADSVKGRFTISRDNAKNTVYLQMNSLKPEDTAVYYCATEYLYVDFFIRYDYWGQGTQVTVSS | low polyreactivity
12 | QVQLVESGGGLVQAGGSLRLSCAASGSIFTYNTMGWYRPAPGKERELVAAISSGGRTYYADSVKGRFTISRDNAKNTVYLQMTSLKPEDTAVYYCAARYYFWGQGTQVTVSS | high polyreactivity
13 | QVQLVESGGGLVQAGGSLRLSCAASGSIFTYYAIGWYRQAPWKERELVAAISWSDGNTYYADSVKGRFTISRDNAKNTVYLQMNSLKPEDSAVYYCAAEYYVSRYWYPYDFYIMNYWGQGTQVTVSS | high polyreactivity
14 | QVQLVESGGGLVQAGGSLRLSCAASGSIFTYYAMGWYRQAPGKEREFVAAISRRGGSTYYADSVKGRFTISRDNAKNTVYLQMNSLKPEDTAVYYCAATYPYRGFYGIRSQFDYWGQGTQVTVSS | high polyreactivity
15 | QVQLVESGGGLVQAGGSLRLSCAASGSIFTYYAMGWYRQAPGKERELVAAISLDGGSTYYADSVKGRFTISRDNAKNTVYLQMNSLKPEDTAVYYCAAYPTYPDEYWGQGTQVTVSS | low polyreactivity
16 | QVQLVESGGGLVQAGGSLRLSCAASGSIFTYYAMGWYRQAPGKERELVAAITRRGGSTYYADSVKGRFTISRDNAKNTVYLQMNSLKPEDTAVYYCNAFTYWASYWDYDYWGQGTQVTVSS | low polyreactivity
17 | QVQLVESGGGLVQAGGSLRLSCAASGSIFTYYAMGWYRQAPGKERELVAGISGGGRTNYADSVKGRFTISRDNAKNTVYLQMNSLKPEDTAVFYCAADWSFSTIRYWRFDSDYWGQGTQVTVSS | high polyreactivity
18 | QVQLVESGGGLVQAGGSLRLSCAASGSIFTYYAMGWYRQAPGKERELVASINWSGGRTYYADSVKGRFTISRDNAKNTVYLQMNSLKPEDTAVYYCNARSAYGTGNQRGRRYYWGQGTQVTVSS | high polyreactivity
19 | QVQLVESGGGLVQAGGSLRLSCAASGSIFTYYTMGWYRPAPGKERELVAAISNRGGSTYYADSVKGRFTISRDNSKITVYLQMNSLKPEDTAVYYCNKDVGVAVEMAYWGQGTQVTVSS | high polyreactivity
20 | QVQLVESGGGLVQAGGSLRLSCAASGSIFTYYTMGWYRQAPGKERELVAAITVSGGRTFYADSVKGRFTISRDNAKNTVYLQMNSLKPEDTAVYYCAVKQVTLSPQYDYWGQGTQVTVSS | low polyreactivity
21 | QVQLVESGGGLVQAGGSLRLSCAASGSIFVANPMGWYRQATGKERELVAVISSGGGSTSYADSVKGRFTISRDNAKNSVYLQMNSLKPEDTAVYYCNRRRYDAGSTMGYWGQGTQVTVSS | low polyreactivity

Row | Sequence | polyreactivity (PSR sort gate)
22 | QVQLVESGGGLVQAGGSLRLSCAASGSIFVAYTMGWYRQAPGKERELVAAISRGGSTNYADSVKGRFTISRDNAKNTVDLQMNSLKPEDTAVYYCAAKVWDGQLLYYWGQGTQVTVSS | low polyreactivity
23 | QVQLVESGGGLVQAGGSLRLSCAASGSIFVDNAMGWYRQAPGIERELVAVITLRSGSTNYADSVKGRFTISRDNAKNTVYLQMNSLKPEDTAVYYCAADDTYHDYQRDTDDDYWGQGTQVTVSS | low polyreactivity
24 | QVQLVESGGGLVQAGGSLRLSCAASGSIFVDNAMGWYRQAPGKDRELVAVISWIGSSTYYADSVKGRFTISRDNAKNTDYFQMNSLKPEDTAVYYCAAAPSRTLLRQSKYYYWGQGTQVTVSS | low polyreactivity
25 | QVQLVESGGGLVQAGGSLRLSCAASGSIFVDYAMGWSRPAPGKERELVVAISLSGGSTYYADSVKGRFTISRDNAKNTVYLQMNSLKPEDTAVYYCNAELIKGTYRWYEGGSQYGYWGHGTQVTVSS | low polyreactivity
26 | QVQLVESGGGLVQAGGSLRLSCAASGSIFVDYAMGWYRPAPGNERELVADITSDGGSTDYADSVKGRFTISRDYAKNTVYLQMHSLNPEDTAVYDCAALKTQVLGVVEYGYDYWGQGTQVTVSS | high polyreactivity
27 | QVQLVESGGGLVQAGGSLRLSCAASGSIFVDYAMGWYRQAPGKERELVAAITWRGDTTYYADSVKGRFTISRDNAKNTFYLQMNSLKPEDTAVYYCAAADPVGGEYWGQGTQVTVSS | low polyreactivity
28 | QVQLVESGGGLVQAGGSLRLSCAASGSIFVFNAMGWYRQAPGKERELVAAISNGDGTNYADSVKGRFTISRDNAKNTVYLQMNSLKPEETAVYYCAAVWTTLIVIEYDYWGQGTQVTVSS | low polyreactivity
29 | QVQLVESGGGLVQAGGSLRLSCAASGSIFVFYDMGWYRQAPGKERELVATISSGGGGTYYTDSVKGRFTISRDNAKNTVYLQMNSLKPEDTAVYYCAAEGDKYGKGDGYWGQGPQVTVSS | low polyreactivity
30 | QVQLVESGGGLVQAGGSLRLSCAASGSIFVGFARGWYRQAPGKERELVAAISWSGDSTYYADSVKGRVTISRDNAKKTVYLQLNSLKPEDTAVYYCAVDYAEIGPRREVEYDYWGQGTQVTVSS | low polyreactivity
31 | QVQLVESGGGLVQAGGSLRLSCAASGSIFVGNAMGWYRQAPGKERELVAAINSGGSTYYADSVKGRFTISRDNAKNTVYLQMNSLKPEDTAVYYCAAEGTYSYYLYEYWGLGTQVTVSS | low polyreactivity
32 | QVQLVESGGGLVQAGGSLRLSCAASGSIFVGNVMGWYRQAPGKERELVAAISRTGGTYYADSVKGRFTISRDNAKNTVYLQMNSLKPEDTAVYYCNKVSLRQSRMYYWGQGTQVTVSS | high polyreactivity
33 | QVQLVESGGGLVQAGGSLRLSCAASGSIFVGYAMGWYRQAPGKERELVAAISWSGDSTYYADSVKGRFTISRDNAKNTVYLQMNSLTPEDTAVYYCAVDYAEIGPRPEVEYDYWGQGTQVTVSS | low polyreactivity
34 | QVQLVESGGGLVQAGGSLRLSCAASGSIFVGYAMGWYRQAPGKERELVAAISWSGDSTYYADSVKGRFTISRDTAKNTVYLQMNSLKPEDTAVYYCAVDYAEIGPRREVEYDYWGQGTQVTVSS | low polyreactivity
35 | QVQLVESGGGLVQAGGSLRLSCAASGSIFVGYGAMGWYRQAPGKERELVAAITSGTSTYYADSVKGRFTISRDNAKNTVYLQMNSLKPEDTAVYYCAARGFLKYVTEFDYWGQGTQVTVSS | low polyreactivity
36 | QVQLVESGGGLVQAGGSLRLSCAASGSIFVGYTMGWYRQAPGKERELVAAITRRGGSTYYADSVKGRFTISRDNAKNTVYLQMNSLKPEDTAVYYCAAEVRRYVIVPYYYWGQGTQLTVSS | high polyreactivity
37 | QVQLVESGGGLVQAGGSLRLSCAASGSIFVHNAMGWYRQAPGKERELVAAITWSGGSTYYADSVKGRFTISRDNAKNTVYLQMNSLKPEDTAVYYCAAEDVAAQWAYESPTSYWYYYIYEYWGQGTQVTVSS | low polyreactivity
38 | QVQLVESGGGLVQAGGSLRLSCAASGSIFVHYAMGWSRQAPGKERELVAAITTSGGSTYYADSVKGRFTISRDNAKNTVYLQMNSLKPEDTAVYYCNARAVRYPFTGNYWAQGTQVTVSS | high polyreactivity
39 | QVQLVESGGGLVQAGGSLRLSCAASGSIFVINPMGWYRQAPGNERELVAAISDSGTGTYYADSVKGRFTISRDNAKNTVYLQMNSLKPEDTAVYYCAADYYYRYRIYDYWGQGTQVTASS | low polyreactivity
40 | QVQLVESGGGLVQAGGSLRLSCAASGSIFVKYTMGWYRQAPGKERELVAAISFRGGSTYYADSVKGRFTISRDNAKNTVYLQINSLKPEDTAVYYCNADGGWWPEYYWGQGTQVTVSS | low polyreactivity
41 | QVQLVESGGGLVQAGGSLRLSCAASGSIFVNNAMGWYRQAPGKERELVAAISSRGGSTYYADSVKGRFTISRDNAKNTVYLQMNSLKPEDTAVYYCAAEYDGPYYSFYPEQRYYWGQGTQVTVSS | low polyreactivity
